# Results published in patent publication US20110195083A1.
# Legend:
# Experiment in all cases: cell-based or functional assay
# [1] = target: HIV-1 BX08 envelope protein (Env) on pseudovirus (HIV-1 strain BX08)
# [2] = target: HIV-1 BaL envelope protein (Env) on pseudovirus (HIV-1 strain Bal)
# [3] = target: HIV-1 6535 envelope protein (Env) on pseudovirus (HIV-1 strain 6535)
substance,measurement,setting,value
CD4-mimic peptide CD4M33,"neutralization IC50, CD4M33 alone",[1],0.173 µg/mL
same,"neutralization IC50, CD4M33 concentration in combination with serum B714",[1],0.036 µg/mL
same,"neutralization IC50, CD4M33 concentration in combination with serum B716",[1],0.036 µg/mL
same,"neutralization IC50, CD4M33 concentration in combination with serum B718",[1],0.028 µg/mL
same,"neutralization IC50, CD4M33 concentration in combination with serum B720",[1],0.014 µg/mL
same,"neutralization IC50, CD4M33 alone",[2],> 0.25 µg/mL
same,"neutralization IC50, CD4M33 concentration in combination with serum B714",[2],0.048 µg/mL
same,"neutralization IC50, CD4M33 concentration in combination with serum B716",[2],0.057 µg/mL
same,"neutralization IC50, CD4M33 concentration in combination with serum B718",[2],0.045 µg/mL
same,"neutralization IC50, CD4M33 concentration in combination with serum B720",[2],0.017 µg/mL
same,"neutralization IC50, CD4M33 alone",[3],0.721 µg/mL
same,"neutralization IC50, CD4M33 concentration in combination with serum B714",[3],0.431 µg/mL
same,"neutralization IC50, CD4M33 concentration in combination with serum B716",[3],0.431 µg/mL
same,"neutralization IC50, CD4M33 concentration in combination with serum B718",[3],0.481 µg/mL
same,"neutralization IC50, CD4M33 concentration in combination with serum B720",[3],0.189 µg/mL
